System: Bevacizumab (Avastin; anti-VEGF humanized monoclonal antibody) (Homo sapiens (humanized antibody)?)
Settings: quartz crystal microbalance (AFFINIX Q8), velocity analysis; Bevacizumab immobilized on sensor; phosphate buffer (DPBS); aptamer 1.48-2.91 uM; sequence …

## CCGTGTGGTGGGGGTTGGGGGTTGTCGTTCGCCG [Bevacizumab DNA aptamer SEQ ID NO: 1]
  Kd: 9.1 µM

Source: US20190284560
